From patent US20240238445A1, “INHIBITORS AND USES THEREOF” (NEURACLE SCIENCE CO., LTD., priority 2021, published 2024) come the findings set out here.

This assay deals with binding of FAM19A5 protein to full-length ectodomain of the LRRC4B protein (amino acids 36-576 of SEQ ID NO: 2) (Homo sapiens, UniProt Q7Z5A7). As to the kind of experiment: Competitive inhibition assay, plate coated with full-length ectodomain of LRRC4B (amino acids 36-576). The following applies: for inhibition of FAM19A5 binding to coated full-length LRRC4B ectodomain protein (in words): increasing concentrations, FAM19A5 5 ng/mL, 100 nM coat. In a few lines:
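Wells are coated with 100 nM LRRC4B ectodomain (aa 36-576), and 5 ng/mL recombinant FAM19A5 is added with competitor: LRRC4B deletion constructs at increasing concentrations, or synthetic peptides at 20 nM. After incubation at 37 °C, bound FAM19A5 is detected with HRP-conjugated anti-FAM19A5 (1-65) antibody.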

Chain of binding of FAM19A5 protein to full-length ectodomain of the LRRC4B protein (amino acids 36-576 of SEQ ID NO: 2) (Q7Z5A7 44-132): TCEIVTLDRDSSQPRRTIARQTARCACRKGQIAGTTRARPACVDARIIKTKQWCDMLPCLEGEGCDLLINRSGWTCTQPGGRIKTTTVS

On to GYTYFTTVTVETLETQPGEE [FB-20], for which the “inhibition of interaction between FAM19A5 and the coated LRRC4B protein fragments (in words)” value (20 nM peptide, statement covers both coats, LRRC4B (36-576) and LRRC4B (453-576)) is “significantly decreased the interaction”. In addition, the “Inhibition rate (%) LRRC4B (amino acids 36-576)-hFc” value by setting is: (Table 8, 20 nM peptide, FAM19A5 5 ng/ml) 77.0%; (Table 9, deletion variants, 20 nM peptide, FAM19A5 5 ng/ml) 84.3%; (Table 10, alanine/asparagine mutants) 77.0%.

B1: LRRC4B (453-576): LRRC4B ectodomain fragment, amino acids 453-576 of SEQ ID NO: 2; FLAG-tagged or hFc-fused (protein)
chain: VSAVDPVAAGGTGSGGGGPGGSGGVGGGSGGYTYFTTVTVETLETQPGEEALQPRGTEKEPPGPTTDGVWGGGRPGDAAGPASSSTTAPAPRSSRPTEKAFTVPITDVTENALKDLDDVMKTTK
modifications: FLAG tag or human Fc
notes: FLAG-tagged or hFc-fused
B1: the “inhibition of FAM19A5 binding to coated full-length LRRC4B ectodomain protein (in words)” value is given as “able to inhibit FAM19A5 protein from binding”.

B2: LRRC4B (498-576): LRRC4B ectodomain fragment, amino acids 498-576 of SEQ ID NO: 2 (protein)
chain: QPGEEALQPRGTEKEPPGPTTDGVWGGGRPGDAAGPASSSTTAPAPRSSRPTEKAFTVPITDVTENALKDLDDVMKTTK
B2: the “inhibition of FAM19A5 binding to coated full-length LRRC4B ectodomain protein (in words)” value is reported as “much inferior in their ability to inhibit the interaction”.
